{"source": "patent US7316915", "about": "(TANOX, dated 2008)", "key": {"[1]": {"biological_target": "Bcl2 expressed as a fusion protein with the binding domain (BD) of GAL4 (yeast, UniProt P04386 1-147; P10415 1-239, limits assumed)", "experiment": "yeast two hybrid"}, "[2]": {"biological_target": "Bax expressed as a fusion protein with the binding domain (BD) of GAL4 (yeast, UniProt P04386 1-147; Q07812 1-192, limits assumed)", "experiment": "yeast two hybrid"}, "[3]": {"biological_target": "T1, BBP expressed as a fusion protein with the binding domain (BD) of GAL4 (yeast; human, UniProt P04386 1-147)", "T1 construct": "range 1-147; also called BBP-BD", "experiment": "yeast two hybrid (GAL4 AD and BD fusions)"}, "[4]": {"biological_target": "T2, Bak expressed as a fusion protein with the binding domain (BD) of GAL4 (yeast, UniProt P04386 1-147)", "T2 construct": "range 1-147; Yeast two-hybrid bait; also called GAL4-Bak fusion protein", "experiment": "yeast two hybrid (GAL4 AD and BD fusions)"}, "[5]": {"biological_target": "T3, Bak (expressed in yeast, used as lysate) (Homo sapiens (Human), UniProt Q16611 1-211, limits assumed)", "T3 construct": "also called full-length Bak", "T3 sequence": "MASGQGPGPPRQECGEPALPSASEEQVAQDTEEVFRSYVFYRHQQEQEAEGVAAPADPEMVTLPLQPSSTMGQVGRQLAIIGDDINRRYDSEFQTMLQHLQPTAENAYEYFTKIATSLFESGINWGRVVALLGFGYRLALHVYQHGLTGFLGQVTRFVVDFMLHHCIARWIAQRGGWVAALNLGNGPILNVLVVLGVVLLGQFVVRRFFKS", "experiment": "GST fusion on glutathione-Sepharose column, yeast lysate expressing Bak, Western blot"}, "[6]": {"biological_target": "T4, BakΔ3 (N-terminal deletion mutant of Bak, amino acids 96-210 of full-length Bak) (Homo sapiens (Human), UniProt Q16611 96-211)", "T4 construct": "Produced in Sf9 cells by baculovirus and used as an NP-40 cell extract", "T4 sequence": "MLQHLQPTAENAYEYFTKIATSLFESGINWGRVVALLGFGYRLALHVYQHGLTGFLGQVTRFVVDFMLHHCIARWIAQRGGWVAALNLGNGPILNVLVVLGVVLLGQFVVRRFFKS", "experiment": "GST pull-down from Sf9 extract, immunoblot with anti-Bak"}}, "note": "Where no end group is shown, it is not given here."}
{"binder": "BBP expressed as a fusion protein with the activation domain (AD) of GAL4 (other, yeast, range 768-881; Yeast two-hybrid prey; also called BBP-AD) ANFNQSGNIADSSLSFTFTNSSNGPNLITTQTNSQALSQPIASSNVHDNFMNNEITASKIDDGNNSKPLSPGWTDQTAYNAFGITTGMFNTTTMDDVYNYLFDDEDTPPNPKKEMAASSQGNFEGNFESLDLAEFAKKQPWWRKLFGQESGPSAEKYSVATQLFIGGVTGWCTGFIFQKVGKLAATAVGGGFFLLQLANHTGYIKVDWQRVEKDMKKAKEQLKIRKSNQIPTEVRSKAEEVVSFVKKNVLVTGGFFGGFLLGMAS", "values": [{"measurement": "binding result", "setting": "[1]", "result": "no binding"}, {"measurement": "binding result", "setting": "[2]", "result": "no binding"}, {"measurement": "binding result", "setting": "[3]", "result": "binds"}, {"measurement": "binding result", "setting": "[4]", "result": "binds"}]}
{"binder": "gst fusion protein containing full-length BHRF-1 (other, not shown: glutathione-S-transferase (gst)) MAYSTREILLALCIRDSRVHGNGTLHPVLELAARETPLRLSPEDTVVLRYHVLLEEIIERNSETFTETWNRFITHTEHVDLDFNSVFLEIFHRGDPSLGRALAWMAWCMHACRTLCCNQSTPYYVVDLSVRGMLEASEGLDGWIHQQGGWSTLIEDNIPGSRRFSWTLFLAGLTLSLLVICSYLFISRGRH", "values": [{"measurement": "binding result", "setting": "[5]", "result": "binds"}]}
{"binder": "MAASSQGNFEGNFESLDLAEFAKKQPWWRKLFGQESGPSAEK (other, not fully specified (N-terminus); also: fused to glutathione-S-transferase (GST), not in chain, It was subcloned into pGEX-5X in frame with gst; also called BBP-L1; gst-BBP-L1; not shown: glutathione-S-transferase (gst) as encoded by vector pGEX-5X (Pharmacia))", "note": "[gst fusion protein containing BBP-Loop1 (N-terminal 42 amino acid portion of BBP)]", "values": [{"measurement": "binding result", "setting": "[5]", "result": "binds"}]}
{"binder": "HTGYIKVDWQRVEKDMKKAKEQLKIRKSNQIPTEVRSKAEEVVSFVKK (other, not fully specified (N-terminus); also: fused to glutathione-S-transferase (GST), not in chain, It was subcloned into pGEX-5X in frame with gst; also called BBP-L2; gst-BBP-L2; not shown: glutathione-S-transferase (gst) as encoded by vector pGEX-5X (Pharmacia))", "note": "[gst fusion protein containing BBP-Loop2 (internal loop of BBP, amino acids 86 through 133)]", "values": [{"measurement": "binding result", "setting": "[6]", "result": "no binding"}, {"measurement": "binding result", "setting": "[5]", "result": "binds"}]}
